According to patent US5688912A, “Peptide ligands which bind to von willebrand factor” (Bayer Corporation, priority 1995, dated 1997):
No end group written: not given here.

Experiments:
Type in all cases: binding
[1] = target: T1, von Willebrand Factor (vWF) (Homo sapiens, UniProt P04275); assay: Peptide-Toyopearl affinity column chromatography of Koate; vWF in fractions by ELISA, protein by A280; parameters: Koate® containing vWF, FVIII, and albumin was a product of Bayer Corp; tissue Bayer Corp. (Clayton, N.C.) Koate; host or cells: plasma-derived concentrate (Koate); details: for % vWF by ELISA, flow through / % area of acid peak / % vWF by ELISA, acid / % vWF by ELISA, salt: Table 2; for % vWF by ELISA, flow through / % area of acid peak: 1 ml column; for % area of acid peak: 2% acetic acid peak; for % vWF by ELISA, salt: NaCl gradient eluate
Experimental: The gel slurry (1 ml wet gel mixed with 2 ml degassed PBS and 1 M sodium chloride buffer) was transferred into a packing device (from PerSeptive Biosystems, Framingham, Mass.) and packed into a PEEK column (0.75 cm×5 cm from Alltech, Deerfield, Ill.) at a flow rate of 8 ml/min. […] The column was washed with at least 4 bed volumes of binding buffer (10 mM HEPES, 100 mM NaCl, 5 mM calcium chloride at pH 7) and elution buffer (2% acetic acid), then equilibrated with binding buffer.
Protein concentrations were monitored by A280 absorbance. Samples were characterized using vWF ELISA. Briefly, anti-vWF antibody (from Accurate Inc. N.Y.) was coated on each well of a microliter plate (96 wells from Corning, N.Y. 14831) overnight using 100 μl solution of antibody diluted 200 times in 0.1M sodium bicarbonate buffer at pH 9.6. Each well was then blocked with 300 μl solution of 1% BSA in PBS for 1 hour at room temperature. The plate was washed 5 times with PBS. Pure vWF and the collected samples were diluted to a concentration range between 0.02 to 0.2 μg/ml using 1 mg/ml BSA in PBS. Each sample (100 μl) was incubated with the anti-vWF coated well for 1 hour at room temperature and the plate was washed 5 times with PBS plus 0.1% Tween 20. A second anti-vWF antibody with horse radish peroxidase (HRP) conjugate (from DAKO, Glostrup, Denmark) at a concentration of 1 to 500 dilution was introduced to each well and incubated for i hour at room temperature. The plate was washed again with PBS plus 0.1% Tween 20 for 5 times. Substrate ABTS (2,2'-azino-bis(3-ethylbenz-thiazoline-6-sulfonic acid)) and H2 O2 were used for the kinetic reading at 410 nm using Bio Kinetics Reader from BioTek (Winooski, Vt.).
Peptide RLRSFY was directly synthesized (25) onto a modified Toyopearl resin (--(β-Ala)2 -Toyopearl) and the resin was packed in a 1 ml column (0.7×2.5 cm). Koate (Bayer's product containing vWF, FVIII and human albumin) was applied to the column at a flow rate of 2 ml/min in binding buffer (10 mM HEPES, 5 mM calcium chloride and 0.1M NaCl, pH 7). After 1 min of washing in binding buffer, a linear gradient from 0.1 to 1M NaCl in HEPES buffer was applied to the column over 5 min. The elution with high salt concentration was maintained for another 1 min, before 2% acetic acid was used to elute the retained protein. […] The remainder was eluted using 2% acetic acid. In a control experiment in which no peptide was attached to the resin (only --(β-Ala)2 -Toyopearl), almost all protein from 0.1 ml Koate flowed through the column under the same conditions used for the peptide-Toyopearl column.
Single conservative amino acid substitutions at the first three positions of RLRSFY were synthesized directly on (β-Ala)2 -Toyopearl. Amino acid substitutions used for both positions of arginine (R) were histidine (H), lysine (K), glutamine (Q), and asparagine (N). Substitutions for leucine (L) include isoleucine (I), valine (V), phenylalanine (F), and tyrosine (Y). These individual substitutions created 12 unique peptide sequences. (SEQ ID NOS: 1 to 12 ) After the resins were packed into 1 ml glass columns, 0.1 ml Koate was applied to each column and eluted with sodium chloride gradient and 2% acetic acid, same as in FIG. 1. Fractions were collected and analyzed for A280 absorbance and ELISA. […] The substitution of the R at the third position from the N-terminus had no effect on the capture of vWF from Koate. […] Maximum vWF binding occurred when L was substituted for V.

[2] = target: T1, von Willebrand Factor (vWF); assay: Batch adsorption isotherm of vWF onto peptide-Toyopearl, Langmuir fit; parameters: Koate® containing vWF, FVIII, and albumin was a product of Bayer Corp; tissue Bayer Corp. (Clayton, N.C.) Koate; host or cells: plasma-derived concentrate (Koate)
Experimental: Adsorption isotherms were measured in a batch mode. In a siliconized microcentrifuge tube, 0.1 ml wet gel was mixed with vWF solution of 10 mM HEPES, 5 mM calcium chloride and 0.5M sodium chloride at pH 7 in a total volume of 0.3 ml. The microcentrifuge tube was incubated at 25° C. for 20 minutes, then the gel was separated from the solution by microcentrifugation. The concentrations of vWF in solutions were measured both by absorbance at 280 nm with an extinction coefficient of 1.2 for 1 mg/ml vWF and by ELISA.
Interactions between RVRSFY directly synthesized on Toyopearl and vWF were studied through adsorption isotherm measurements. Because vWF consists of a wide range of molecular weights, complex theoretical analyses are required to obtain binding constants from the adsorption isotherms. In addition, different multimers of vWF may have different binding constants. To simplify the analyses, vWF with molecular weight around 1000 kDa was fractionated from Koate using size exclusion chromatography with Bio-Gel A-5M gel (BioRad) and analyzed by nonreducing agarose gel electrophoresis.
An increase of peptide density increases adsorption of vWF. A minimum peptide density, 32 mg peptide Ac-RVRSFYK/ml resin ([…]), is required for the binding of vWF to the peptide. The Langmuir equation was used to fit these isotherms, and the association constants and maximum capacities obtained from curve fits are listed in Table 3. They show an increase of association constant and maximum binding capacity with an increase of peptide density mobilized on the Toyopearl resin.

[3] = target: T1, von Willebrand Factor (vWF); assay: Peptide-Toyopearl affinity column chromatography of Koate; vWF in fractions by ELISA, protein by A280; parameters: Koate® containing vWF, FVIII, and albumin was a product of Bayer Corp; tissue Bayer Corp. (Clayton, N.C.) Koate; host or cells: plasma-derived concentrate (Koate); details: for percentage of vWF eluted: 0.5M calcium chloride
[4] = target: T1, von Willebrand Factor (vWF); assay: Purification of vWF from cryoprecipitate PEG filtrate of human plasma on peptide-Toyopearl column
Experimental: The starting material called PEG filtrate was processed from human plasma cryoprecipitate at Bayer Corp. (Clayton, N.C.). This material contained vWF, FVIII, significant fibrinogen, fibronectin, and IgM. The PEG filtrate was treated with 1% TNBP (tri-n-butylphosphate) and 0.5 % Tween 20 (from Aldrich) at 30° C. for 3 hours. After the treatment, the mixture was directly injected onto peptide affinity columns.
Confirmation of the purification of vWF on RVRSFY-Toyopearl was performed using PEG filtrate as the starting material (FIG. 2). Inclusion of a 0.15M NaCl wash and an additional 0.35M NaCl wash removed the bulk of the albumin. Bound vWF was eluted with 2% acetic acid.
The PEG filtrate was treated with virus inactivation reagents, 1% TNBP and 0.5% Tween 20 at 30° C. for 3 hours. The treated PEG fitrate was injected directly into the column. […] Approximately 74% of the total vWF was eluted with 0.35M CaCl2 (small peak at 10 min).

Substance	% vWF by ELISA, flow through ([1]; 0.1 ml Koate)	% area of acid peak ([1]; 0.1 ml Koate)	% vWF by ELISA, acid ([1]; 2% acetic acid eluate)	% vWF by ELISA, salt [1]	also measured
RLNSFY (not fully specified (C-terminus))	0.26%	24.5%	47.68%	1.50%	–
KLRSFY (not fully specified (C-terminus))	1.03%	27.1%	26.94%	9.83%	–
RFRSFY (not fully specified (C-terminus))	0.20%	27.8%	47.96%	0.07%	–
QLRSFY (not fully specified (C-terminus))	29.45%	9.2%	2.20%	11.69%	–
RLRSFY (not fully specified (C-terminus)) [RLRSFY-Toyopearl, phage-library-derived peptide directly synthesized onto modified Toyopearl resin (--(β-Ala)2-Toyopearl)]	–	–	–	–	protein that did not bind to the peptide resin or was loosely bound and eluted by sodium chloride ([1]; 0.1 ml Koate): about 60%; A280, flow through ([1]; 0.1 ml Koate (input A280 7.8), flow through fraction ×4 ml): 0.071; A280, acid ([1]; 0.1 ml Koate, 2% acetic acid fraction ×4 ml): 0.070; A280, salt ([1]; 0.1 ml Koate, NaCl gradient 0.1 to 1M fraction ×12 ml): 0.014; vWF recovered in the acid peak ([1]; Koate, 2% acetic acid): Approximately one-half; retention of vWF by column ([1]; Koate, could not be eluted by sodium chloride up to 1M): Most of the vWF was retained; % vWF activity by ELISA, acid ([1]; Table 1, 0.1 ml Koate, 2% acetic acid eluate): 49.78%; % vWF activity by ELISA, salt ([1]; Table 1, 0.1 ml Koate, NaCl eluate): 0.09%; % vWF activity by ELISA, flow through ([1]; Table 1, 0.1 ml Koate, flow through): 1.6%; % recovery (A280 mass balance) ([1]; total protein recovered from column): 95%
RYRSFY (not fully specified (C-terminus))	1.65%	27.1%	51.72%	0.14%	–
Ac-RVRSFYK-amide (Ac-RVRSFYK-NH2) [Ac-RVRSFYK-Toyopearl, peptide immobilized to Toyopearl-Epoxy-650M resin through the C-terminal lysine]	–	–	–	–	vWF recovered in all fractions (ELISA) ([1]; 0.1 ml Koate, 0.4 ml column, 54 mg/ml peptide): 87.8%; percentage of vWF eluted ([1]; 0.5M calcium chloride, 30° C.): 89%; vWF captured by the peptide column ([1]; Koate, between pH 6 and 7): about 95%; vWF captured by the peptide column ([1]; Koate, solution pH 5): 91%; captured vWF eluted ([1]; calcium and magnesium concentrations higher than 0.3M): about 80%; release of captured vWF by salt elution ([1]; elution with 2M NaCl, Koate): not released; Association constant ([2]; peptide density 32 mg/ml): 882000 M⁻¹; Maximum capacity ([2]; peptide density 32 mg/ml): 2.32 mg/mL; Association constant ([2]; peptide density 45 mg/ml): 1.12e+06 M⁻¹; Maximum capacity ([2]; peptide density 45 mg/ml): 7.3 mg/mL; Association constant ([2]; peptide density 54 mg/ml): 1.68e+06 M⁻¹; Maximum capacity ([2]; peptide density 54 mg/ml): 9.7 mg/mL; Association constant ([2]; peptide density 60 mg/ml): 2.06e+06 M⁻¹; Maximum capacity ([2]; peptide density 60 mg/ml): 10.33 mg/mL; total vWF in the CaCl2 fraction (ELISA) ([3]; 0.1 ml Koate, 0.4 ml column, 54 mg/ml peptide, 0.5M CaCl2): 82.5%; percentage of vWF eluted ([3]; 22° C.): 80%; percentage of vWF eluted ([3]; 26° C.): 85%; vWF captured by the peptide column ([3]; Koate, solution pH 4.6): 65%; total vWF eluted ([4]; PEG filtrate treated with TNBP/Tween 20, 54 mg/ml peptide, eluted with 0.35M CaCl2): Approximately 74%
HLRSFY (not fully specified (C-terminus))	0.75%	26.7%	32.7%	0.28%	–
RIRSFY (not fully specified (C-terminus))	1.92%	28.0%	44.78%	4.09%	–
RLKSFY (not fully specified (C-terminus))	0.60%	25.1%	45.58%	3.59%	–
RVRSFY (not fully specified (C-terminus))	0.09%	30.2%	55.78%	0.08%	Association constant ([2]; vWF around 1000 kDa, peptide directly synthesized on Toyopearl, Langmuir fit): 1.31e+06 M⁻¹; purification of vWF (SDS-PAGE) ([4]; PEG filtrate, 0.15M and 0.35M NaCl washes, 2% acetic acid elution): highly purified
RLHSFY (not fully specified (C-terminus))	1.77%	24.9%	50.72%	2.89%	–
RLQSFY (not fully specified (C-terminus))	0.46%	20.1%	50.68%	0.54%	–
NLRSFY (not fully specified (C-terminus))	19.96%	14.8%	6.98%	11.88%	–
